These results are taken from doi:10.1101/2019.12.13.867358 (bioRxiv, 2019).

This assay has as its target T1, Smc4 (S. cerevisiae, UniProt Q12267 1-1418).
T1 sequence (looked up): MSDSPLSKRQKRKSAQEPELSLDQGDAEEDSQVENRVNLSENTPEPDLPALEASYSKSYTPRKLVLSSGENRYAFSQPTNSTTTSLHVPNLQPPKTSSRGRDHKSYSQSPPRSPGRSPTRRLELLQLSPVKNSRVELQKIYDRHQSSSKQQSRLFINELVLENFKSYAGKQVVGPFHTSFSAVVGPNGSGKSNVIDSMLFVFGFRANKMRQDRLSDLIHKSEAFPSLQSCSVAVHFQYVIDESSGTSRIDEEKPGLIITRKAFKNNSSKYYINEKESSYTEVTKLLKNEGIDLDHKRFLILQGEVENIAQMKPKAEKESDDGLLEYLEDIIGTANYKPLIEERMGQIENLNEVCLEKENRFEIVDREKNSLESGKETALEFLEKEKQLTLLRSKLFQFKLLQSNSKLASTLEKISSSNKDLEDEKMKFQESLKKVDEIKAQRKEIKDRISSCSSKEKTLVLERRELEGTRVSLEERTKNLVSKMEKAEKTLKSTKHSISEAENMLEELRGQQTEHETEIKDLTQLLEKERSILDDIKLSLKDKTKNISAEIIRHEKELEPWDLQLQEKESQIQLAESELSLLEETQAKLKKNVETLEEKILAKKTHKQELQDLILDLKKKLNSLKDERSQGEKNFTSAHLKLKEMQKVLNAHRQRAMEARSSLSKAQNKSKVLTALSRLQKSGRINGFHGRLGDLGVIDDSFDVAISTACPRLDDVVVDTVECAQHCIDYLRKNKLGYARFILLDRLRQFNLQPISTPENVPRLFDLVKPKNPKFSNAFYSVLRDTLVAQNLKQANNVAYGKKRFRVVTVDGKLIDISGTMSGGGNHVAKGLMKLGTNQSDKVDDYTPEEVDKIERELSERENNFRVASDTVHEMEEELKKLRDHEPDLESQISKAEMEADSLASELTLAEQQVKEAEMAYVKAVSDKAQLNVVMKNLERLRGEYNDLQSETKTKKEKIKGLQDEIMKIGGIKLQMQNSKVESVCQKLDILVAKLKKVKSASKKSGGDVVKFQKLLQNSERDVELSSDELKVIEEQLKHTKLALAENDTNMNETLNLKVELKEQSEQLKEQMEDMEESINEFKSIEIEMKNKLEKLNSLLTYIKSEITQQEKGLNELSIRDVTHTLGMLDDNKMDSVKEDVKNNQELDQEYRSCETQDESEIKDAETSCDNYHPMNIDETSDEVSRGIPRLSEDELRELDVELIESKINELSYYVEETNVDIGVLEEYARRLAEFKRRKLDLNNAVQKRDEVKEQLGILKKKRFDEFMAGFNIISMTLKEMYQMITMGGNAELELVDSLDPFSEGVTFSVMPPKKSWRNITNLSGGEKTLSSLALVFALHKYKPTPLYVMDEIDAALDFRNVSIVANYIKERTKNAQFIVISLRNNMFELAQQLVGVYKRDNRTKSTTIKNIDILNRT
Description: AFM imaging.

B1: Smc2 (natural protein, S. cerevisiae, UniProt P38989 1-1170, looked up)
chain: MKVEELIIDGFKSYATRTVITDWDPQFNAITGLNGSGKSNILDAICFVLGIASMSTVRASSLQDLIYKRGQAGVTKASVTIVFDNTDKSNSPIGFTNSPQISVTRQVVLGGTSKYLINGHRAPQQSVLQLFQSVQLNINNPNFLIMQGKITKVLNMKPSEILSLIEEAAGTKMFEDRREKAERTMSKKETKLQENRTLLTEEIEPKLEKLRNEKRMFLEFQSTQTDLEKTERIVVSYEYYNIKHKHTSIRETLENGETRMKMLNEFVKKTSEEIDSLNEDVEEIKLQKEKELHKEGTISKLENKENGLLNEISRLKTSLSIKVENLNDTTEKSKALESEIASSSAKLIEKKSAYANTEKDYKMVQEQLSKQRDLYKRKEELVSTLTTGISSTGAADGGYNAQLAKAKTELNEVSLAIKKSSMKMELLKKELLTIEPKLKEATKDNELNVKHVKQCQETCDKLRARLVEYGFDPSRIKDLKQREDKLKSHYYQTCKNSEYLKRRVTNLEFNYTKPYPNFEASFVHGVVGQLFQIDNDNIRYATALQTCAGGRLFNVVVQDSQTATQLLERGRLRKRVTIIPLDKIYTRPISSQVLDLAKKIAPGKVELAINLIRFDESITKAMEFIFGNSLICEDPETAKKITFHPKIRARSITLQGDVYDPEGTLSGGSRNTSESLLVDIQKYNQIQKQIETIQADLNHVTEELQTQYATSQKTKTIQSDLNLSLHKLDLAKRNLDANPSSQIIARNEEILRDIGECENEIKTKQMSLKKCQEEVSTIEKDMKEYDSDKGSKLNELKKELKLLAKELEEQESESERKYDLFQNLELETEQLSSELDSNKTLLHNHLKSIESLKLENSDLEGKIRGVEDDLVTVQTELNEEKKRLMDIDDELNELETLIKKKQDEKKSSELELQKLVHDLNKYKSNTNNMEKIIEDLRQKHEFLEDFDLVRNIVKQNEGIDLDTYRERSKQLNEKFQELRKKVNPNIMNMIENVEKKEAALKTMIKTIEKDKMKIQETISKLNEYKRETLVKTWEKVTLDFGNIFADLLPNSFAKLVPCEGKDVTQGLEVKVKLGNIWKESLIELSGGQRSLIALSLIMALLQFRPAPMYILDEVDAALDLSHTQNIGHLIKTRFKGSQFIVVSLKEGMFANANRVFRTRFQDGTSVVSIM
With B1, the binding result is “binds”.
